Patent publication US20140178389A1

Key:
[1] = target: recombinant cynomolgus IL-1β (cynomolgus) (UniProt P79182); assay: flow cytometry of yeast-displayed scFv, titration of biotinylated IL-1b, 25 °C, 30 min, mean fluorescence [Parental]
[2] = target: recombinant human IL-1β (human) (UniProt P01584); assay: as above
[3] = target: recombinant cynomolgus IL-1β (cynomolgus) (UniProt P79182); assay: yeast surface display, flow cytometry with biotinylated antigen
[4] = target: recombinant human IL-1β (human) (UniProt P01584); assay: as above

Sequence of recombinant human IL-1β (human) (P01584 117-269): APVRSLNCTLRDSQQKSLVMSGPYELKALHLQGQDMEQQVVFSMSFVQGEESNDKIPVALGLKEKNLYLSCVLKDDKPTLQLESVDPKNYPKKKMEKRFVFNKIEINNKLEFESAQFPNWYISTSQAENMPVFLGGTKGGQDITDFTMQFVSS
Sequence of recombinant cynomolgus IL-1β (cynomolgus) (P79182 117-268 limits assumed): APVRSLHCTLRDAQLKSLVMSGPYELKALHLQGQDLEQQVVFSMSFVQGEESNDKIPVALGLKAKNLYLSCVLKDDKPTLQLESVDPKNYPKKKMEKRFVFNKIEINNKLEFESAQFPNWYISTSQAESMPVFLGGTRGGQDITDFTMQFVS

EC50 [1]: 23.5 nM
EC50 [2]: 15.1 nM
Kd [3]: 10 to 30 nM
Kd [4]: 10 to 30 nM
B1: h1B12.1 scFv displayed on the surface of yeast (scFv, part only; not given: linker, domain order, yeast display partner, V domains shown, not shown: another chain or arm of the molecule; large carriers; small tags and cut ends)
VH: EVQLQESGPGLVKPSETLSLTCTVSGFSLSDYGVSWIRQPPGKGLEWLGLIWGGGDTYYNSPLKSRLTISKDNSKSQVSLKLSSVTAADTAVYYCAKQRTLWGYDLYGMDYWGQGTLVTVSS
VL: DTQVTQSPSSLSASVGDRVTITCITSTDIDVDMNWYQQKPGKPPKLLISQGNTLRPGVPSRFSSSGSGTDFTFTISSLQPEDFATYYCLQSDNLPLTFGQGTKLEIK
